Substitutions are numbered along the chain they refer to.
Columns and labels:
[1] = biological target: T1, human PD-L1^ECD-hFc protein (human, UniProt Q9NZQ7 19-239, biotinylated in the PD-1 binding ELISA (Table 3) and in the Octet assay (Table 12)); experiment: ELISA, 1.111 nM mAb
T1 construct: The plain and the biotinylated protein are kept as one molecule; also called PD-L1-hFc; Immunogen A; not shown: human IgG Fc fragment (hFc)
Description: (§1) 100 μL of the diluted recombinant proteins were added to each well of 96-well plate. The plates were sealed with plastic film and incubated at 4° C. overnight. The plates were washed twice with wash buffer (PBS+0.01% (v/v) Tween20), and incubated with blocking buffer (PBS+0.01% (v/v) Tween20+1% (w/w) BSA) at room temperature for 2 hours. The blocking buffer was aspirated away, and 100 μL of purified anti-PD-L1 antibodies were added to each well and incubated for 2 hours at 37° C. The plates were washed three times with wash buffer (PBS+0.01% (v/v) Tween20). HRP-conjugated secondary antibody (Sigma) was added to each well and incubated for 2 hours at 37° C. After the plates were washed three times with wash buffer, 100 μL TMB substrate were added to each well, and the plates were incubated for 30 minutes at room temperature. 100 μL stop solution (0.1N HCl) was added to each well to stop the reaction.

[2] = biological target: T2, cyno PD-L1^ECD-hFc protein (cyno, UniProt G7PSE7 19-239); experiment: ELISA, 1.111 nM mAb
T2 construct: also called Cyno Monkey PD-L1^ECD-hFc
Description: as §1

[3] = biological target: T3, full length cyno PD-L1 on cells (cyno, UniProt G7PSE7 19-290); experiment: FACS CHO-K1-cPD-L1, 33.33 nM mAb
T3 construct: also called CHO-K1-cPD-L1
Description: (§2) Other CHO-K1 were stably transfected with a pIRES plasmid containing the nucleic acid sequence encoding full length cyno PD-L1 to generate CHO-K1 cells stably expressing cyno PD-L1 (herein referred to as CHO-K1-cPD-L1 cells). […] The culture media was aspirated, and the cells were washed twice with HBSS (Hanks Balanced Salt Solution, Invitrogen). The cells were treated with enzyme-free cell dissociation solution (Versene solution, Invitrogen) and collected. The cells were then washed twice with HBSS, cell counts were determined, and cells were resuspended with HBSS at 2×10⁶ cells/mL. Goat serum was added to the cell suspension to a final concentration of 1%, and the cells were blocked for 30 minutes on ice and then washed twice with HBSS. The cells were collected after centrifugation and resuspended in FACS buffer (HBSS+1% BSA, v/v) at 2×10⁶ cells/mL. 100 μL of the cell suspension were then added to each well of 96-well plate. 100 μL of purified anti-PD-L1 antibodies from Example 2 were added to each well of the 96-well plate and incubated for 2 hours on ice. […] The samples were washed three times with FACS buffer, and 100 μL fixation buffer (4% paraformaldehyde v/v) were added to each well and incubated for 10 minutes. The cells were then washed twice with FACS buffer and resuspended in 100 μL FACS buffer. The mean fluorescence intensity (MFI) was determined using FACS Calibur (BD), and the results are shown in FIGS. 7-8 and in Tables 10-11.

[4] = biological target: T3, full length cyno PD-L1 on cells; experiment: FACS CHO-K1-cPD-L1, 0.14 nM mAb
Description: as §2

[5] = biological target: T4, full length human PD-L1 on cells (human, UniProt Q9NZQ7 19-290); experiment: FACS CHO-K1-hPD-L1, 3.70 nM mAb
T4 construct: Also used as the target of the cell-based functional assays (transfected stimulator cells; PD-L1 of the cells in the mixed lymphocyte reaction); also called CHO-K1-hPD-L1; CHOK1-hPD-L1
Description: as §2

[6] = biological target: T1, human PD-L1^ECD-hFc protein; experiment: ELISA, 0.041 nM mAb
Description: as §1

[7] = biological target: T2, cyno PD-L1^ECD-hFc protein; experiment: ELISA, 0.041 nM mAb
Description: as §1

[8] = biological target: T4, full length human PD-L1 on cells; experiment: FACS CHO-K1-hPD-L1, 33.33 nM mAb
[9] = biological target: T1, human PD-L1^ECD-hFc protein; experiment: ELISA, 0.1 nM mAb
Description: as §1

[10] = biological target: T1, human PD-L1^ECD-hFc protein; experiment: ELISA, 1 nM mAb
Description: as §1

[11] = biological target: T1, human PD-L1^ECD-hFc protein; experiment: ELISA receptor-ligand blocking assay: PD-L1^ECD-hFc coated on the plate, antibody titrated, blocked ligand biotinylated PD-1^ECD, HRP-streptavidin, inhibition rate (%)
Description: Purified PD-L1^ECD-hFc (Example 2) was diluted with PBS to a final concentration of 1.0 μg/mL, and 100 μL diluted PD-L1^ECD-hFc were added to each well of a 96-well plate that was then sealed with plastic film and incubated at 4° C. overnight. The plate was washed twice with wash buffer (PBS+0.01% (v/v) Tween 20) and incubated with blocking buffer (PBS+[…]) at room temperature for 2 hours. The blocking buffer was aspirated, and 50 μL purified anti-PD-L1 antibodies from Example 2 were added to each well of 96-well plate. […] The plate was washed three times with wash buffer (PBS+0.01% (v/v) Tween 20). 100 μL HRP-conjugated streptavidin (Sigma) were then added to each well and incubated at 37° C. for 2 hours. The plate was then washed three times with wash buffer, and 100 μL TMB substrate were added to each well. After 30 minutes of incubation at room temperature, the reaction was stopped by adding 100 μL stop solution (0.1N HCl).

[12] = biological target: T3, full length cyno PD-L1 on cells; experiment: FACS CHO-K1-cPD-L1, 0.001 nM mAb
Description: as §2

[13] = biological target: T4, full length human PD-L1 on cells; experiment: cell-based or functional assay

T2 sequence (G7PSE7 entry or part of it limits assumed): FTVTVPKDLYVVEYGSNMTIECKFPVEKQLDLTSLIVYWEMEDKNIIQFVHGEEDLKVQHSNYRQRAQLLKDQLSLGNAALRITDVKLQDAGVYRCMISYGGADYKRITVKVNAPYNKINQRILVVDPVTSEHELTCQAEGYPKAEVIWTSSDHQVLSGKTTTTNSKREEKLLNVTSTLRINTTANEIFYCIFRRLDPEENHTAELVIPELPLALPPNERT
T4 sequence (Q9NZQ7 19-290 limits assumed): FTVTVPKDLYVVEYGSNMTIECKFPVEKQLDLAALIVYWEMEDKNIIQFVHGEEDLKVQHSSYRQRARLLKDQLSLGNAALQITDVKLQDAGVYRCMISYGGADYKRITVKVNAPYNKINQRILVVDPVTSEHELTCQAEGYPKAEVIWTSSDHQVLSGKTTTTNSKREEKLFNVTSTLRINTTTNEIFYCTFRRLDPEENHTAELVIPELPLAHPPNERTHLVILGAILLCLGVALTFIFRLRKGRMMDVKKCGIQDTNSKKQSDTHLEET
T1 sequence (Q9NZQ7 19-239): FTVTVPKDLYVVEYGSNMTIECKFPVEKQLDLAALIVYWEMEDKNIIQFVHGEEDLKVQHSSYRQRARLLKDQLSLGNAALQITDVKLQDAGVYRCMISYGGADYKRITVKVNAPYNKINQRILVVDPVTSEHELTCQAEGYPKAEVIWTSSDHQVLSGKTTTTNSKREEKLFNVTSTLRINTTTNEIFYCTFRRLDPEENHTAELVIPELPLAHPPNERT
T3 sequence (G7PSE7 entry or part of it limits assumed): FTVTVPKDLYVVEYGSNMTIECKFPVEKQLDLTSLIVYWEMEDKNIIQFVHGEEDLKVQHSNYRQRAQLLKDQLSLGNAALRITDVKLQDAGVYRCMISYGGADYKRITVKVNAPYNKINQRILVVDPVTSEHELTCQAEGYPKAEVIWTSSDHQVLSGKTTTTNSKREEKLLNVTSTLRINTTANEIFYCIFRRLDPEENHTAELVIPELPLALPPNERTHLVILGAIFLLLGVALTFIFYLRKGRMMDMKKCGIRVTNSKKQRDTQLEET

B1: chimeric anti-PD-L1 antibody 105C5D7 (antibody, V domains shown)
VH: EVQLVESGGGLVQPGGSLRLSCAASGFTFSSYWMSWVRQAPGKGLEWVANIKQDGNEKYYVDSVKGRFTISRDNAKNSLYLQMNSLRAEDTAVYYCARNIKWGDAFDIWGQGTMVTVSS
VL: DIQMTQSPSSLSASVGDRVTITCRASQSISSYLNWYQQKPGKAPKLLIYAASSLQSGVPSRFSGSGSGTDFTLTISSLQPEDFAIYSCQQSYSIPLTFGGGTKVEIK
notes: Purified from hybridoma of Harbour H2L2 mice: human variable regions, rat constant regions
**Q.** B1 was tested. Which OD450 nm [1] did it give?
**A.** Its OD450 nm is 1.32.

**Q.** What about the OD450 nm [2] of the same binder?
**A.** Its OD450 nm is 1.32.

**Q.** What about the Mean fluorescence intensity [3] of the same binder?
**A.** Its Mean fluorescence intensity is 133.

**Q.** What about the Mean fluorescence intensity [4] of the same binder?
**A.** The Mean fluorescence intensity was 42.

**Q.** And the Mean fluorescence intensity [5]?
**A.** The Mean fluorescence intensity was 203.

**Q.** What about the OD450 nm [6] of the same binder?
**A.** The OD450 nm was 0.34.

**Q.** What about the OD450 nm [7] of the same binder?
**A.** The OD450 nm was 0.34.

**Q.** What about the Mean fluorescence intensity [8] of the same binder?
**A.** The Mean fluorescence intensity was 194.

B2: chimeric anti-PD-L1 antibody 127D2F3 (antibody, V domains shown)
VH: EVQLVESGGGLVQPGGSLRLSCVASGFTFSSYWMSWVRQAPGKGLEWVANIKQDGSEKYYVDSVKGRLTISRDNAKNSLYLQMKSLRAEDTAVYYCARDPIYSSYFDYWGQGILVTVSS
VL: B1 VL with S31N, I85A, S87Y, S93G, L96F, G100P, E105D
notes: as for B1
**Q.** Which results are given for B2?
**A.** OD450 nm [9]: 1.65; OD450 nm [10]: 2.8; IC50 (read off the curve) [11]: ~0.3 nM; Mean fluorescence intensity [12]: 1.91; IFN-γ (pg/mL), MLR, 0.001 µg/mL mAb [13]: 599 pg/mL; IFN-γ (pg/mL), MLR, 0.01 µg/mL mAb [13]: 1560 pg/mL; IFN-γ (pg/mL), MLR, 0.1 µg/mL mAb [13]: 3010 pg/mL; IFN-γ (pg/mL), MLR, 1 µg/mL mAb [13]: 2840 pg/mL; IFN-γ (pg/mL), MLR, 10 µg/mL mAb [13]: 4840 pg/mL

B3: chimeric anti-PD-L1 antibody 78A11F6 (antibody, V domains shown)
VH: EVQLVESGGGLVQPGGSLRLSCAASGITFSSYWMSWVRQTPGKGLEWVANIKQDGSEKYYVKSVKGRFTISRDNAKNSLYLQMNSLRAEDTAVYYCVRDRAVPGTGAFDIWGQGTMVIVSS
VL: DIQMTQSPSTLSASVGDRVTITCRASQSISNWLAWYQQKPGKAPKLLIYKASSLESGVPSRFSGSGSGTEFTLTISSLQPDDFATYYCQQYDSSLFTFGQGTKLEIK
notes: as for B1
**Q.** What does the source list for B3?
**A.** OD450 nm [1]: 1.86; OD450 nm [2]: 1.92; Mean fluorescence intensity [3]: 143; Mean fluorescence intensity [4]: 38.3; Mean fluorescence intensity [5]: 199; OD450 nm [6]: 0.37; OD450 nm [7]: 0.45; Mean fluorescence intensity [8]: 225

B4: chimeric anti-PD-L1 antibody 73G11B3 (antibody, V domains shown)
VH: B3 VH with A23V, A24V, I27F, K62D, F68L, F108L, I118T
VL: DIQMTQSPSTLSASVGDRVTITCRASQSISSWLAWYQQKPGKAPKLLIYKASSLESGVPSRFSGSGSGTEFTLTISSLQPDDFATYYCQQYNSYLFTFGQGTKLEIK
notes: as for B1
**Q.** Which OD450 nm [9] does the source give for B4 here?
**A.** Its OD450 nm is 0.88.

**Q.** What about the OD450 nm [10] of the same binder?
**A.** Its OD450 nm is 2.7.

**Q.** What about the “IC50 (read off the curve)” value [11] of the same binder?
**A.** The value was ~0.4 nM.

**Q.** And the Mean fluorescence intensity [12]?
**A.** Its Mean fluorescence intensity is 2.02.

**Q.** What about the “IFN-γ (pg/mL), MLR, 0.001 µg/mL mAb” value [13] of the same binder?
**A.** Its value is 1520 pg/mL.

**Q.** And the “IFN-γ (pg/mL), MLR, 0.01 µg/mL mAb” value [13]?
**A.** The value was 3750 pg/mL.

**Q.** What about the “IFN-γ (pg/mL), MLR, 0.1 µg/mL mAb” value [13] of the same binder?
**A.** The value was 5740 pg/mL.

**Q.** What about the “IFN-γ (pg/mL), MLR, 1 µg/mL mAb” value [13] of the same binder?
**A.** Its value is 6480 pg/mL.

**Q.** What about the “IFN-γ (pg/mL), MLR, 10 µg/mL mAb” value [13] of the same binder?
**A.** Its value is 6950 pg/mL.

B5: chimeric anti-PD-L1 antibody 192D9E7 (antibody, V domains shown)
VH: EVQLVESGGGLVQPGGSLRLSCAASGFTFSSYWMSWVRQAPGKGLEWVADIKQDGSEKYYVDSVKGRFTISRDNAKNSLYLQMNSLRAEDTAVYYCTRDKPHWGGVMDAWGQGTSVTVSS
VL: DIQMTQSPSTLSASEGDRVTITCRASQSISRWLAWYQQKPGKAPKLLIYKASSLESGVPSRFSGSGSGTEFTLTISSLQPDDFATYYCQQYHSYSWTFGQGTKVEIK
notes: as for B1
**Q.** Which results are given for B5?
**A.** OD450 nm [9]: 1.55; OD450 nm [10]: 2.77; Mean fluorescence intensity [12]: 1.93; IFN-γ (pg/mL), MLR, 0.001 µg/mL mAb [13]: 221 pg/mL; IFN-γ (pg/mL), MLR, 0.01 µg/mL mAb [13]: 2000 pg/mL; IFN-γ (pg/mL), MLR, 0.1 µg/mL mAb [13]: 3120 pg/mL; IFN-γ (pg/mL), MLR, 1 µg/mL mAb [13]: 3300 pg/mL; IFN-γ (pg/mL), MLR, 10 µg/mL mAb [13]: 4080 pg/mL

B6: chimeric anti-PD-L1 antibody 73D3G2 (antibody, V domains shown)
VH: EVQLVESGGGLVQPGGSLRLSCAASGFTFNTYWMNWVRQAPGRGLEWVANIKQDGGEKYYVDSVKGRFTISRDNAKNSLYLQMNSLRAEDTAMYYCARDGRSWYPDAFDIWGQGTVVTVSS
VL: DIQMTQSPSTLSASVGDRVTITCRASQSISTWLAWYQQKLGKAPKLLIYEVSILESGVPSRFSGSGSGTEFTLTISSLQPDDFATYYCQQYHSFSSFGGGTRVEIK
notes: as for B1
**Q.** B6 was tested. Which OD450 nm [1] did it give?
**A.** The OD450 nm was 1.81.

**Q.** And the OD450 nm [2]?
**A.** The OD450 nm was 1.81.

**Q.** And the Mean fluorescence intensity [3]?
**A.** The Mean fluorescence intensity was 137.

**Q.** And the “IC50 (read off the curve)” value [11]?
**A.** The value was ~0.5 nM.

**Q.** What about the Mean fluorescence intensity [4] of the same binder?
**A.** Its Mean fluorescence intensity is 44.3.

**Q.** What about the Mean fluorescence intensity [5] of the same binder?
**A.** Its Mean fluorescence intensity is 113.

**Q.** What about the OD450 nm [6] of the same binder?
**A.** The OD450 nm was 0.36.

**Q.** And the OD450 nm [7]?
**A.** Its OD450 nm is 0.36.

**Q.** And the Mean fluorescence intensity [8]?
**A.** Its Mean fluorescence intensity is 116.
